These results are taken from US20200385425A1.

The assay concerns the target PDZ1/2 domain (Homo sapiens (Human)) (UniProt P78352). Put plainly: SPR, Biacore 3000, PDZ1/2 amine-coupled on CM5 chip, peptide as analyte, 1:1 binding model. For orientation: SPR reads the build-up and loss of mass on a sensor chip optically.

Sequence of PDZ1/2 domain (Homo sapiens (Human)) (P78352 65-246 limits assumed): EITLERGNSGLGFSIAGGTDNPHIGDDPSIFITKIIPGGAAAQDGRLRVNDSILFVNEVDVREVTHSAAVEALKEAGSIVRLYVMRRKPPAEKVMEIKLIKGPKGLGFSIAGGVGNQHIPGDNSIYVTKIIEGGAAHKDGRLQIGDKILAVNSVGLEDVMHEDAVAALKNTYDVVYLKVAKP

For the substance control chimeric peptide NA-1, the Kd came out at 75.3 nM.

A word on the Kd: it is the constant that tells how readily two partners part at equilibrium. Read a high Kd as weaker binding.
